Where a chain is given by its changes, count along the chain named. Numbers in names are those of the source.

The target of this assay is Methionine-1-linked triubiquitin (UniProt P0CG48 1-76; P0CG48 1-76; P0CG48 1-76). Put plainly: MST.
Sequence of Methionine-1-linked triubiquitin (P0CG48 1-228, one chain of several): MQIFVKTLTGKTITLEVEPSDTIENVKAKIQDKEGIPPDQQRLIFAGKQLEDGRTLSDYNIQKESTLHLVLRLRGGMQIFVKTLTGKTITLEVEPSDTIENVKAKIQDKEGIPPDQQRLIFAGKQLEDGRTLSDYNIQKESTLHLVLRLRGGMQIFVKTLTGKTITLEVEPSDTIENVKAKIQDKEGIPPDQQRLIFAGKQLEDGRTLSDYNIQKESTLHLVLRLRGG

B1: AHD1-UBAN E444F (domain or fragment)
chain: QRLNKALEEALSIQTPPSSPPTAFGSPFGAGALLRKQELVTQNELLKQQVKIFEEDFQRERSDRERMNEEKEELKKQVEKLQAQVTLSNAQLK
One may read the Kd as the free concentration of one partner at which half of the binding sites on the other are occupied at equilibrium, for simple one-to-one binding. Lower therefore signals a tighter complex. In the case of B1, the Kd came to 3.52 µM.

B2: AHD1-UBAN E425Q (domain or fragment)
chain: B1 chain with E9Q, F28E
With B2, the affinity, expressed as Kd, was 5.5 µM.

The values above are taken from PMC11940065 (2025).
